How the values were obtained:
Test in all cases: GST pull-down of in vitro translated 35S-labeled protein, autoradiography; '-' = no interaction
[1] = target: T1, FADD (in vitro translated, 35S-labeled) (human, UniProt Q13158 1-208)
T1 sequence (looked up): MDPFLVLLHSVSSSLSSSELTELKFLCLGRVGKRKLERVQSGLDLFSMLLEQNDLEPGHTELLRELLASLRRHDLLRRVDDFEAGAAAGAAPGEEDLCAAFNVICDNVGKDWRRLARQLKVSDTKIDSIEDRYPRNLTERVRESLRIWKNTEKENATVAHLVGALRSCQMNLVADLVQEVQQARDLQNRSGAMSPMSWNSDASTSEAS

[2] = target: Dr-5 (in vitro translated, 35S-labeled) (human, UniProt O14763 1-440, limits assumed)
[3] = target: T2, TNF-RI (in vitro translated, 35S-labeled) (human, UniProt P19438 1-455, limits assumed)
T2 construct: also called TNFR1
T2 sequence (looked up): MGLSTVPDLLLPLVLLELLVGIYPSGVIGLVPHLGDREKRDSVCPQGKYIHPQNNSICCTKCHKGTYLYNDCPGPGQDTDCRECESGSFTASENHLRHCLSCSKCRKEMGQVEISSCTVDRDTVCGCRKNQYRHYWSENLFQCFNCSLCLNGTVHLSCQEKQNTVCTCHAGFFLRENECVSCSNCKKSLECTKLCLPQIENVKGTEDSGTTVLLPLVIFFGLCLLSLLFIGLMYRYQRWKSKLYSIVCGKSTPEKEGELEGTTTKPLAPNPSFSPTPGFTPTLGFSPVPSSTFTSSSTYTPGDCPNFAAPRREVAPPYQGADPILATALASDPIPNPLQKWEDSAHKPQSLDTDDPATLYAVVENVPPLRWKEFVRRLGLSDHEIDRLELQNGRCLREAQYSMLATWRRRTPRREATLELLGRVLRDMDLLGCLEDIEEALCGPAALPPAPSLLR

[4] = target: T3, Fas (in vitro translated, 35S-labeled) (human, UniProt P25445 1-335, limits assumed)
T3 construct: also called Fas [CD95]
T3 sequence (looked up): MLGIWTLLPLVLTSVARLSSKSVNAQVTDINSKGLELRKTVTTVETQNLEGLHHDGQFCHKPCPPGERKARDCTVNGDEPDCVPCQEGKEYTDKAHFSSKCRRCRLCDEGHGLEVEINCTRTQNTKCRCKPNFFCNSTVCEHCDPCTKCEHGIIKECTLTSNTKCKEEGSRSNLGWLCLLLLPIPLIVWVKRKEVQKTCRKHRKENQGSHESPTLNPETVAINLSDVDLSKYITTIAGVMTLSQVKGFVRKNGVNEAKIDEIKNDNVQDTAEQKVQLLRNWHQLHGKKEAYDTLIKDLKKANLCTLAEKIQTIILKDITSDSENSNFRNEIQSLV

[5] = target: T4, RIP (in vitro translated, 35S-labeled) (human, UniProt Q13546 1-671, limits assumed)
T4 sequence (looked up): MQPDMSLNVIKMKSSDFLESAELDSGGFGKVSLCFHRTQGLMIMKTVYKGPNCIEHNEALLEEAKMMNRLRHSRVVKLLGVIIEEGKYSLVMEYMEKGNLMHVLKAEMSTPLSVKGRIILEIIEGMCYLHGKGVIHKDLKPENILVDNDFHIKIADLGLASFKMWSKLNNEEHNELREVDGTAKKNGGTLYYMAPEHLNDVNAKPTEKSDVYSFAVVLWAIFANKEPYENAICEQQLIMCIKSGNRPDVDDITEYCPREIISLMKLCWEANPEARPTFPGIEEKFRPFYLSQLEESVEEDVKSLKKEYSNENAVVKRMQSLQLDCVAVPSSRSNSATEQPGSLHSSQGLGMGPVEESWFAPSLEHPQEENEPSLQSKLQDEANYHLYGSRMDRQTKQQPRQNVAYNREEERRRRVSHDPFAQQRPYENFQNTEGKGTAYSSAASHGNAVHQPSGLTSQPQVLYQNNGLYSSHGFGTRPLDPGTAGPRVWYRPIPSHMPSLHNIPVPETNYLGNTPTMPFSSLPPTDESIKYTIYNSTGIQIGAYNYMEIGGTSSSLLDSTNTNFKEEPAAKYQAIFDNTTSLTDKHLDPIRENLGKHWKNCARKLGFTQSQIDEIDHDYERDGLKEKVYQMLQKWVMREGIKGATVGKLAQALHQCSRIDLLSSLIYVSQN

[6] = target: RAIDD (in vitro translated, 35S-labeled) (human, UniProt P78560 1-199)
Sequence of RAIDD (in vitro translated, 35S-labeled) (P78560 whole entry): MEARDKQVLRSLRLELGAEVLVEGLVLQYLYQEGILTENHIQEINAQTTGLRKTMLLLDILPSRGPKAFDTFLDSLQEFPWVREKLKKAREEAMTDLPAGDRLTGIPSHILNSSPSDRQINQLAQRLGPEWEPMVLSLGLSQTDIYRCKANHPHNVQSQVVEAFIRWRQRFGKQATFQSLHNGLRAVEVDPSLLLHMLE

[7] = target: c-Flip (in vitro translated, 35S-labeled) (human, UniProt O15519 1-480)
Sequence of c-Flip (in vitro translated, 35S-labeled) (O15519 whole entry): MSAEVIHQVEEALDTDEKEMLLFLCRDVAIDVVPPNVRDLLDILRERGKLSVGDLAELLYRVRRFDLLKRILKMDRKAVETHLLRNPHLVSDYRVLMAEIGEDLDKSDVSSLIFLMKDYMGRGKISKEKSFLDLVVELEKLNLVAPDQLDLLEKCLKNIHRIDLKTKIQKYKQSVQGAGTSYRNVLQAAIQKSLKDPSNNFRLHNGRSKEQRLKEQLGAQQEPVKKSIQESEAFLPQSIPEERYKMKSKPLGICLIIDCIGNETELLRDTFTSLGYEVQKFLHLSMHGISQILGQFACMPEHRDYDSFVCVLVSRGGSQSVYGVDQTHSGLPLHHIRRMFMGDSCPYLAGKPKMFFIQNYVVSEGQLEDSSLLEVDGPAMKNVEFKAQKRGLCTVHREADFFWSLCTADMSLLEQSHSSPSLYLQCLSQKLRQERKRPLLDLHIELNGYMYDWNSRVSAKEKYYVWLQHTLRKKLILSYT

[8] = target: Dr-4 (in vitro translated, 35S-labeled) (human, UniProt O00220 1-468, limits assumed)

Measured: binding result

B1: GST-CD40 (cytosolic domain) (other, UniProt P25942 216-277, looked up)
chain: KKVAKKPTNKAPHPKQEPQEINFPDDLPGSNTAAPVQETLHGCQPVTQEDGKESRISVQERQ
notes: domain: cytosolic domain; Control fusion protein; not shown: glutathione S-transferase
no binding: all assays above
